Ends that are not written are not given here.

In assay [1] the target is T1, ApoC3 peptide … P69H (human, not fully specified (bridges); also: cyclic constrained).
T1 peptide: DKFSEFWDLDHEV
Kind of assay: peptide microarray. Here is the method:
F64 was completely variable.
Pre: staining of one of the ApoC3 peptide microarrays was done with the secondary antibody goat anti-human IgG (Fe) DyLight680 (1:5000) and control antibody mouse monoclonal anti-HA (12CA5) DyLight800 (1:2000) to investigate background interactions of the secondary antibody with the antigen-derived peptides that could interfere with the main assays. Subsequent incubation of other ApoC3 peptide microarrays with antibody samples was followed by staining with secondary and control antibodies as well as read-out at scanning intensities of 7/7 (red/green). The additional HA peptides framing the peptide arrays were stained as internal quality control to confirm the assay quality and the peptide microarray integrity.

The target of assay [2] is T2, ApoC3 peptide W65C (human, not fully specified; cyclic (thioether)).
T2 peptide: DKFSEFCDLDPEV
Kind of assay: cyclic peptide substitution array. In outline:
(§1)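 Peptide microarrays incubated with antibody samples, then stained with goat anti-human IgG (Fc) DyLight680 and anti-HA DyLight800 control antibodies, scanned at intensity 7/7 (red/green). Secondary-only pre-stain checked background binding; framing HA peptides served as quality control; substitution effects read as changes in spot intensity.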

The target of assay [3] is T3, ApoC3 peptide W65E (human, not fully specified; cyclic (thioether)).
T3 peptide: DKFSEFEDLDPEV
Kind of assay: cyclic peptide substitution array. In outline: as §1

Assay [4] concerns the target T4, ApoC3 peptide W65F (human, not fully specified; cyclic (thioether)).
T4 peptide: DKFSEFFDLDPEV
Kind of assay: cyclic peptide substitution array. The gist of the method: as §1

For assay [5], the target named is T5, ApoC3 peptide D66F (human, not fully specified; cyclic (thioether)).
T5 peptide: DKFSEFWFLDPEV
The assay is described as follows: cyclic peptide substitution array. In outline:
as §1

In assay [6] the target is T6, ApoC3 peptide P69F (human, not fully specified; cyclic (thioether)).
T6 peptide: DKFSEFWDLDFEV
Kind of assay: cyclic peptide substitution array. The gist of the method: as §1

Assay [7] deals with T7, ApoC3 peptide V71F (human, thioether (positions not given here); also: cyclic (thioether), ring places not given here).
T7 peptide: DKFSEFWDLDPEF
Kind of assay: cyclic peptide substitution array. In outline: as §1

Assay [8] has as its target T8, ApoC3 peptide S62G (human, not fully specified; cyclic (thioether)).
T8 peptide: DKFGEFWDLDPEV
The assay is described as follows: cyclic peptide substitution array. The gist of the method:
as §1

For assay [9], the target named is T9, ApoC3 peptide E63G (human, not fully specified; cyclic (thioether)).
T9 peptide: DKFSGFWDLDPEV
The assay is described as follows: cyclic peptide substitution array. The gist of the method:
as §1

The target of assay [10] is T10, ApoC3 peptide W65I (human, cyclic (thioether)).
T10 peptide: DKFSEFIDLDPEV
Kind of assay: cyclic peptide substitution array. In outline: as §1

Assay [11] addresses T11, ApoC3 peptide D59K (human, thioether (positions not given here); not fully specified (C-terminus, bridges)).
T11 peptide: KKFSEFWDLDPEV
The assay is described as follows: cyclic peptide substitution array. The gist of the method: as §1

Assay [12] addresses T12, ApoC3 peptide D68L (human, cyclic (thioether)).
T12 peptide: DKFSEFWDLLPEV
The assay is described as follows: cyclic peptide substitution array. In outline:
as §1

Assay [13] has as its target T13, ApoC3 peptide P69L (human, not fully specified; cyclic (thioether)).
T13 peptide: DKFSEFWDLDLEV
Kind of assay: cyclic peptide substitution array. In outline:
as §1

For assay [14], the target named is T14, ApoC3 peptide V71N (human, thioether (positions not given here); also: cyclic (thioether), ring places not given here).
T14 peptide: DKFSEFWDLDPEN
Kind of assay: cyclic peptide substitution array. The gist of the method: as §1

For assay [15], the target named is T15, ApoC3 peptide F61P (human, cyclic (thioether)).
T15 peptide: DKPSEFWDLDPEV
The assay is described as follows: cyclic peptide substitution array. The gist of the method: as §1

Assay [16] has as its target T16, ApoC3 peptide D66P (human, not fully specified; cyclic (thioether)).
T16 peptide: DKFSEFWPLDPEV
The assay is described as follows: cyclic peptide substitution array. The gist of the method: as §1

Assay [17] deals with T17, ApoC3 peptide K60Q (human, cyclic (thioether)).
T17 peptide: DQFSEFWDLDPEV
The assay is described as follows: cyclic peptide substitution array. The gist of the method: as §1

In assay [18] the target is T18, ApoC3 peptide E63Q (human, cyclic (thioether)).
T18 peptide: DKFSQFWDLDPEV
Kind of assay: cyclic peptide substitution array. The gist of the method: as §1

Assay [19] has as its target T19, ApoC3 peptide D68Q (human, cyclic (thioether)).
T19 peptide: DKFSEFWDLQPEV
The assay is described as follows: cyclic peptide substitution array. The gist of the method: as §1

Assay [20] addresses T20, ApoC3 peptide E70S (human, cyclic (thioether)).
T20 peptide: DKFSEFWDLDPSV
The assay is described as follows: cyclic peptide substitution array. In outline: as §1

For assay [21], the target named is T21, ApoC3 peptide D66T (human, not fully specified; cyclic (thioether)).
T21 peptide: DKFSEFWTLDPEV
Kind of assay: cyclic peptide substitution array. The gist of the method:
as §1

For assay [22], the target named is T22, ApoC3 peptide D68V (human, not fully specified; cyclic (thioether)).
T22 peptide: DKFSEFWDLVPEV
The assay is described as follows: cyclic peptide substitution array. The gist of the method: as §1

Assay [23] concerns the target T23, ApoC3 peptide P69V (human, not fully specified; cyclic (thioether)).
T23 peptide: DKFSEFWDLDVEV
The assay is described as follows: cyclic peptide substitution array. The gist of the method: as §1

For assay [24], the target named is T24, ApoC3 peptide E70V (human, cyclic (thioether)).
T24 peptide: DKFSEFWDLDPVV
Kind of assay: cyclic peptide substitution array. The gist of the method: as §1

The target in assay [25] is T25, ApoC3 peptide D59W (human, thioether (positions not given here); not fully specified (C-terminus, bridges); also: cyclised via thioether between a C-terminal Cys and a modified N-terminus, the Cys and the N-terminal …).
T25 peptide: WKFSEFWDLDPEV
Kind of assay: cyclic peptide substitution array. In outline:
as §1

The target of assay [26] is T26, ApoC3 peptide F64W (human, thioether (positions not given here); not fully specified (bridges); also: cyclic (thioether), positions not given here).
T26 peptide: DKFSEWWDLDPEV
Kind of assay: cyclic peptide substitution array. The gist of the method: as §1

Assay [27] deals with T27, ApoC3 peptide F64Y (human, thioether (positions not given here); not fully specified (bridges); also: cyclic (thioether), positions not given here).
T27 peptide: DKFSEYWDLDPEV
The assay is described as follows: cyclic peptide substitution array. The gist of the method: as §1

Assay [28] addresses T28, ApoC3 peptide D59A (human, thioether (positions not given here); not fully specified (C-terminus, bridges)).
T28 peptide: AKFSEFWDLDPEV
The assay is described as follows: cyclic peptide substitution array. In outline:
as §1

In assay [29] the target is T29, ApoC3 peptide F61A (human, cyclic (thioether)).
T29 peptide: DKASEFWDLDPEV
Kind of assay: cyclic peptide substitution array. In outline:
as §1

Assay [30] has as its target T30, ApoC3 peptide S62A (human, not fully specified; cyclic (thioether)).
T30 peptide: DKFAEFWDLDPEV
Kind of assay: cyclic peptide substitution array. In outline: as §1

The target in assay [31] is T31, ApoC3 peptide F61C (human, cyclic (thioether)).
T31 peptide: DKCSEFWDLDPEV
Kind of assay: cyclic peptide substitution array. The gist of the method:
as §1

Assay [32] has as its target T32, ApoC3 peptide S62C (human, not fully specified; cyclic (thioether)).
T32 peptide: DKFCEFWDLDPEV
The assay is described as follows: cyclic peptide substitution array. The gist of the method: as §1

B1: anti-ApoC3 antibody 6A6 (antibody, V domains shown)
VH: EVQLVESGGGLVQPGGSLRLSCAASGFTFSSYAGRWVRQVPGKGLEWVSSINAGGGSTSYADSVKGRFTISRDNAKNTLYLQMNSLKPEDTAKYYCTQNSYRYWGQGTRVAVSS
VL: DVVLTQTPGSLSVVPGESASISCKASQSLIHTDGKTYLYWLLQKPGQRPQLLIYQVSSHESGVPDRFTGSGSGTDFTLKISGVKAEDAGVYYCAQATYNPRTFGQGTKLEIK
notes: it was detected with goat anti-human IgG (Fc); also called mAb 6A6; llama antibody 6A6
B1: in [1], the “% of binding to wild-type peptide” value was found to be 19.2%.

B2: Llama antibody 5E5 (antibody, V domains shown)
VH: QLQLVESGGGLVQPGGSLRLSCAASGFTFGTYSMRWVRQVPRKALEWVSSISTDGGGTAYRDSVKGRFTISRDNAKNTLYLQMNNLKPEDTAIYYCVIAGYSDWGQGTQVTVSS
VL: ATMLTQSPGSLSVVPGESASISCKTSQGLVHSDGKTYFYWFLQKPGQSPQQLIYQVSNRASGVPDRFTGSGSGTDFTLKISGVKAEDAGVYYCAQGTYYPHTFGSGTRLEIK
notes: detected with goat anti-human IgG (Fc); also called mAb 5E5
On to B2, for which the “% of binding to wild-type peptide” value in assay [2] is 0.08%; in [3], 0%; in assay [4], 5.5%; in assay [5], 0%; in assay [6], 11.6%; in assay [7], 81.4%. For the same molecule, the “% of binding to wild-type peptide” value worked out at 0.88% in assay [8]; 0% in assay [9]; 0% in assay [10]; 30.6% in assay [11]; 0% in assay [12]; 16.7% in assay [13]. The “% of binding to wild-type peptide” value is 86.6% in assay [14]; 52.7% in assay [15]; 0% in assay [16]; 178% in assay [17]; 32.4% in assay [18]; 0.96% in assay [19]. Besides, the “% of binding to wild-type peptide” value in [20] worked out at 55.2%; in assay [21] it was 0%; in assay [22], 0%; in [23], 55.2%; in assay [24] it was 57%; in assay [25] it was 56.8%. For the same molecule, the “% of binding to wild-type peptide” value in assay [26] was 88.5%; in [27], 118%; in assay [28] it was 44.4%; in [29] it was 17.4%; in [30] it was 29.6%; in [31], 0.51%. Besides, the “% of binding to wild-type peptide” value in assay [32] was 0%.

The record behind these values is patent US20190241648A1 (STATEN BIOTECHNOLOGY B V, published 2019).
